Data on 4 molecules can be found in paper PMC11919693, “Structural basis of the mechanism and inhibition of a human ceramide synthase” (Nature Structural & Molecular Biology, 2024).

Data set [1] concerns the molecule itself. Nature of the data set: cryo-EM structure; CerS6 dimer mixed with a 1.5x molar excess of nanobody (Nb22 or Nb02), 1 h on ice, complex purified by SEC in GDN, 5 mg/ml; the CerS6–Nb22 complex also after incubation with 120 µM FB1; C2 symmetry imposed.
A short description of data set [2]: denaturing intact protein MS. The following applies: glycan lost; control: wild-type CerS6 (Met1-Asp350).
The target of data set [3] is human ceramide synthase 6 (CerS6), truncated at Asp350 (Met1-Asp350) (human) (UniProt Q6ZMG9). The experiment in a line: cryo-EM structure; CerS6 dimer mixed with a 1.5x molar excess of nanobody (Nb22 or Nb02), 1 h on ice, complex purified by SEC in GDN, 5 mg/ml; the CerS6–Nb22 complex also after incubation with 120 µM FB1; C2 symmetry imposed. (Size exclusion chromatography separates by hydrodynamic size, large species first.)

The target of data set [4] is T1, biotinylated C-terminally Avi-tagged human CerS6 (Homo sapiens, biotin on the Avi tag (in vitro, BirA)).
T1 construct: Ceramide synthase 6 (CerS6), Homo sapiens, UniProt Q6ZMG9; A Gly-Gly-Gly-Ser linker stands between CerS6 and the Avi tag, which lies upstream of the TEV cleavage site; also called biotinylated CerS6; Avi-tagged CerS6; not shown: Avi, C-terminal, kept; 10xHis, C-terminal, cleaved; Twin-Strep, C-terminal, cleaved
T1 chain: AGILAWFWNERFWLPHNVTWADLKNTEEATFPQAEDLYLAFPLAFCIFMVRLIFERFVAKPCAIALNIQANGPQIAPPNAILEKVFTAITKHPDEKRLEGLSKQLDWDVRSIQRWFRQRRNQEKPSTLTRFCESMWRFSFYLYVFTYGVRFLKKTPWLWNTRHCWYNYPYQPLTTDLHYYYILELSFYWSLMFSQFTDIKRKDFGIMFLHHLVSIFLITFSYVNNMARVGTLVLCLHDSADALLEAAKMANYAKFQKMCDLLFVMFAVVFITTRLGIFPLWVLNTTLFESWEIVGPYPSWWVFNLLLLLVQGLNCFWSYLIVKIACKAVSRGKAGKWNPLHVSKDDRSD
Nature of the data set: BLI; Octet Red 384, Streptavidin SA biosensors loaded with 40 µg/ml biotinylated CerS6, SEC buffer with 0.003% LMNG and 0.0003% CHS; screen of unique nanobodies for slow off rates. The note with it: both partners purified. For orientation: In BLI a coated tip is dipped into the sample, and binding shifts an interference pattern.

B1: human ceramide synthase 6 (CerS6), truncated at Asp350 (Met1-Asp350) (enzyme, UniProt Q6ZMG9-2 1-350, looked up)
chain: MAGILAWFWNERFWLPHNVTWADLKNTEEATFPQAEDLYLAFPLAFCIFMVRLIFERFVAKPCAIALNIQANGPQIAPPNAILEKVFTAITKHPDEKRLEGLSKQLDWDVRSIQRWFRQRRNQEKPSTLTRFCESMWRFSFYLYVFTYGVRFLKKTPWLWNTRHCWYNYPYQPLTTDLHYYYILELSFYWSLMFSQFTDIKRKDFGIMFLHHLVSIFLITFSYVNNMARVGTLVLCLHDSADALLEAAKMANYAKFQKMCDLLFVMFAVVFITTRLGIFPLWVLNTTLFESWEIVGPYPSWWVFNLLLLLVQGLNCFWSYLIVKIACKAVSRGKAGKWNPLHVSKDDRSD
modifications: palmitoyl (C16:0) chain covalently attached to His211 (covalent intermediate state; transferred to FB1 in the N-palmitoyl FB1-bound state); N-linked glycan on Asn18; loss of the initiator methionine and acetylation of the new N terminus
notes: Ceramide synthase 6 (CerS6), Homo sapiens, UniProt Q6ZMG9, residues Met1-Asp350; C terminus predicted to be disordered removed; Purified as a mixture of monomer and dimer; the dimer SEC peak was used for the nanobody complexes and cryo-EM; also called acyl–CerS6; palmitoyl–CerS6; not shown: 10xHis, C-terminal, cleaved; Twin-Strep, C-terminal, cleaved
For orientation: stoichiometry N means a count of units in the complex or per binding partner. In the case of B1, the “stoichiometry N” value in data set [1] was 2.

B2: CerS6: N18Q (protein)
parent chain: MAGILAWFWNERFWLPHNVTWADLKNTEEATFPQAEDLYLAFPLAFCIFMVRLIFERFVAKPCAIALNIQANGPQIAPPNAILEKVFTAITKHPDEKRLEGLSKQLDWDVRSIQRWFRQRRNQEKPSTLTRFCESMWRFSFYLYVFTYGVRFLKKTPWLWNTRHCWYNYPYQPLTTDLHYYYILELSFYWSLMFSQFTDIKRKDFGIMFLHHLVSIFLITFSYVNNMARVGTLVLCLHDSADALLEAAKMANYAKFQKMCDLLFVMFAVVFITTRLGIFPLWVLNTTLFESWEIVGPYPSWWVFNLLLLLVQGLNCFWSYLIVKIACKAVSRGKVSKDDRSDIESSSDEEDSEPPGKNPHTATTTNGTSGTNGYLLTGSCSMDD
In the case of B2, the “other: presence of covalent palmitoyl-enzyme adduct, other: adduct mass shift” value in data set [2] was “no change, +239.80 vs +238.45”.

B3: nanobody 22 (Nb22), anti-CerS6 camelid nanobody (VHH)
VHH: QVQLVESGGGLVQAEGSLRLSCAASGRTFRTYGMGWFRQAPGKEREFVAALNWSGSSTYYADSVKGRFTISRDNAKNTAYLQMNSLKPEDTAVYYCAALRRKAEYGSRSIADFDSWSKGTPVTVSS
notes: alpaca nanobody raised against CerS6 proteoliposomes; its chain is in the deposited models PDB 8QZ6 and 8QZ7 (residues 1-124 modelled); source: WK6 cells, purified from periplasmic extracts (Ni2+-NTA)
In data set [3], B3 registered a stoichiometry N of 1 per monomer. Also, the binding result in data set [4] is “binds”.

B4: nanobody 02 (Nb02), anti-CerS6 camelid nanobody (VHH)
VHH: QLQFVESGGGLVQAGGSLRLSCAASGRTFSRYAVGWFRQAPGKEREFVASITWNGATTYYADSVKGRFTISRDNAKNTVYLQMNSLKPEDTAVYYCALDLYSYGTRDVADFGSWGKGTRVTVSS
notes: alpaca nanobody raised against CerS6 proteoliposomes; its chain is in the deposited model PDB 9EOT (residues 1-123 modelled); source: WK6 cells, purified from periplasmic extracts (Ni2+-NTA)
B4: the stoichiometry N in data set [3] was determined as 1. Also, the binding result in data set [4] is listed as “binds”.
